Test results reported in doi:10.1101/716654 (bioRxiv, 2019).

Molecular target: the molecule itself
Assay: native gel or EMSA

B1: hNav1.7^GFP (human voltage-gated sodium channel Nav1.7 fused to C-terminal GFP) (natural protein)
chain: not shown
- stoichiometry N: 2
